The values that follow come from patent publication US6642040B2, “Human cGMP-stimulated cyclic nucleotide phosphodiesterase” (The Board of Regents of the University of Washington, priority 1991, dated 2003).

The test system of this assay is cGS-PDE activity. Kind of assay: cGS-PDE activity of membrane and supernatant fractions of transfected COS-7 cells. The format is biochemical, bovine. From the text:
Transient expression of the CGS-PDE cDNA in COS-7 cells was accomplished as in Example I. A 4.2 kb fragment of p3CGS-5 was isolated using HindIII and NotI and was inserted into plasmid pCDM8, which had been digested with the same enzymes. The character of products produced in COS-7 cells transformed with the p3CGS-5/pCDM8 construct is discussed in Example V, infra.
For transient expression in COS-7 cells, a 3.8 kb fragment of pBBCGSPDE-7 was isolated using HindIII and NotI and inserted into plasmid pCDM8 which had been cut with HindIII and NotI restriction endonucleases. The recombinant pBBCGSPDE-7/CDM8 construct was used to transiently transfect COS-7 cells. The properties of the pBBCGSPDE-7/CDM8 construct and the p3CGS-5/CDM8 construct prepared in Example IV products were subsequently compared. Membrane and supernatant fractions were prepared from extracts of transfected COS-7 cells and assayed for cGS-PDE activity. […] However, a 10-fold greater percentage of total cGS-PDE activity was detected in membranes from COS-7 cell extracts transfected with the pBBCGSPDE-7/CDM8 construct than in membranes prepared from p3CGS-5/CDM8-transfected COS-7 cells.

B1: pBBCGSPDE-7/CDM8: expression product of bovine brain cGS-PDE cDNA (SEQ ID NO: 43) (protein)
chain: MGQACGHSILCRSQQYPAARPAEPRGQQVFLKPDEPPPPPQPCADSLQDALLSLGSVIDVAGLQQAVKEALSAVLPKVETVYTYLLDGESRLVCEEPPHELPQEGKVREAVISRKRLGCNGLGPSDLPGKPLARLVAPLAPDTQVLVIPLVDKEAGAVAAVILVHCGQLSDNEEWSLQAVEKHTLVALKRVQALQQRESSVAPEATQNPPEEAAGDQKGGVAYTDQDRKILQLCGELYDLDASSLQLKVLQYLQQETQASRCCLLLVSEDNLQLSCKVIGDKVLEEEISFPLTTGRLGQVVEDKKSIQLKDLTSEDMQQLQSMLGCEVQAMLCVPVISRATDQVVALACAFNKLGGDLFTDQDEHVIQHCFHYTSTVLTSTLAFQKEQKLKCECQALLQVAKNLFTHLDDVSVLLQEIITEARNLSNAEICSVFLLDQNELVAKVFDGGVVEDESYEIRIPADQGIAGHVATTGQILNIPDAYAHPLFYRGVDDSTGFRTRNILCFPIKNENQEVIGVAELVNKINGPWFSKFDEDLATAFSIYCGISIAHSLLYKKVNEAQYRSHLANEMMMYHMKVSDDEYTKLLHDGIQPVAAIDSNFASFTYTPRSLPEDDTSMAILSMLQDMNFINNYKIDCPTLARFCLMVKKGYRDPPYHNWMHAFSVSHFCYLLYKNLELTNYLEDMEIFALFISCMCHDLDHRGTNNSFQVASKSVLAALYSSEGSVMERHHFAQAIAILNTHGCNIFDHFSRKDYQRMLDLMRDIILATDLAHHLRIFKDLQKMAEVGYDRTNKQHHSLLLCLLMTSCDLSDQTKGWKTTRKIAELIYKEFFSQGDLEKAMGNRPMEMMDREKAYIPELQISFMEHIAMPIYKLLQDLFPKAAELYERVASNREHWTKVSHKFTIRGLPSNNSLDFLDEEYEVPDLDGARAPINGCCSLDAE
As to B1, the “percentage of total cGS-PDE activity detected in membranes, relative to p3CGS-5/CDM8-transfected cells” value (membranes from COS-7 cell extracts) came to 10 fold. The “cGS-PDE activity in COS-7 cell extracts” value (most of the activity in supernatant fractions) is listed as “produced cGS-PDE activities”.
